Test results as given in US20120231000A1.

What was measured:
[1] = target: ratVEGF1-165 homodimer (recombinant full-length ratVEGF) (rat) (UniProt P16612); test: ELISA on coated antigen
[2] = target: humVEGF1-165 homodimer (recombinant full-length humanVEGF) (human) (UniProt P15692); test: ELISA titer on coated humVEGF1-165, 5000 ng/mL
Chain of humVEGF1-165 homodimer (recombinant full-length humanVEGF) (human) (P15692 other isoform, or with tags, fused parts or gaps): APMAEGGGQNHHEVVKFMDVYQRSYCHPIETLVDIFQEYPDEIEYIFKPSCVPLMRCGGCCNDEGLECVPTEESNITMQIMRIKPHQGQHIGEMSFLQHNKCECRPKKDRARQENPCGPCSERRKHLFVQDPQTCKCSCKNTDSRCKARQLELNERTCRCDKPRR

Chain of ratVEGF1-165 homodimer (recombinant full-length ratVEGF) (rat) (P16612 27-165, form in doubt): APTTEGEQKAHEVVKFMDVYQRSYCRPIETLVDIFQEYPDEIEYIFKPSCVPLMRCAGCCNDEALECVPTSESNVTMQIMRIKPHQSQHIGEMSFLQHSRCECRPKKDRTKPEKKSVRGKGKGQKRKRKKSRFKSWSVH

Row | ELISA signal at dilution 1/100 [1] | ELISA signal at dilution 1/300 [1] | ELISA signal at dilution 1/1000 [1] | titer endblood [1] [ng/mL] | Titer (-10log dilution) [2] | Substance
1 | 236 | 148 | 103 | < 1000 |  | Avastin™ (Bevacizumab) (antibody)
2 |  |  |  |  | 4.2 | BioVision™ (control Ab) (antibody)
